B1: γ59κ11 (antibody, V domains shown)
VH: QIHLVQSGTEVKKPGSSVTVSCKAYGVNTFGLYAVNWVRQAPGQGLEYIGQIWRWKSSASHHFRGRVLISAVDLTGSSPPISSLEIKNVTSDDTAVYFCTTTSTYDEWSDLHHDGVMAFSSWGQGTLISVSA
VL: DIQMTQSPSTLSASVGGTVRISCRASQSITGGWLAWYHQRPGKAPRLLIYRGSRLLGGVPSRFSGSAAGTDFTLTIANLQAEDFGTFYCQQYDTYPGTFGQGTKVEVKR
B2: γ20κ18 (antibody, V domains shown)
VH: B1 VH with T19A, G45S, H62D, L68I, V89L, T101A, Y105P, E107Y, D110G
VL: B1 VL with G17D, T70A
B3: γ4κ18 (antibody, V domains shown)
VH: B1 VH with G45S, L68I, S83P, V89L, Y105S, E107R, D110G
VL: B1 VL with G17D, T70A
B4: γ46κ18 (antibody, V domains shown)
VH: B1 VH with E107K, D110G, M117V
VL: B1 VL with G17D, T70A
B5: γ3κ18 (antibody, V domains shown)
VH: QIHLVQSGTEVKKPGSSVTVSCKAYGVNTFGLYAVSWVRQAPGQRLEYIGQIRRWKSSASHHFRGRVTVSAVDPTGSSPPISSLEIRDLTTDDTAVYFCTTTSTSDYWSGLHNERGTAFSSWGQGTLISVSA
VL: B1 VL with G17D, T70A
B6: γ23κ18 (antibody, V domains shown)
VH: B1 VH with G45S, L68I, V89L, Y105S, E107Y, D110G
VL: B1 VL with G17D, T70A
B7: γ59κ18 (antibody, V domains shown)
VH: B1 VH
VL: B1 VL with G17D, T70A
B8: γ22κ18 (antibody, V domains shown)
VH: B1 VH with G45S, S77P, V89L, E107K, D110G
VL: B1 VL with G17D, T70A
B9: γ52κ18 (antibody, V domains shown)
VH: B1 VH with G45S, V89L, E107R, D110G
VL: B1 VL with G17D, T70A

This is an account of results in patent US20180171001A1.

Changes are numbered by the printed parent chain.

The first assay has as its target Env of HIV-1 strain 231965.c1 (HIV-1). The assay can be described thus: cell-based or functional assay.
The molecule B1 displayed a neutralization IC50 above 15 mg/L.

The molecule B2 gave a neutralization IC50 above 15 mg/L.

In turn, B3 showed a neutralization IC50 above 15 mg/L.

Molecule B4 gave a neutralization IC50 of 4.16 mg/L.

B5 showed a neutralization IC50 of 0.163 mg/L.

The molecule B6 gave a neutralization IC50 of 0.128 mg/L.

In turn, B7 came in with a neutralization IC50 above 15 mg/L.

For the molecule B8, the neutralization IC50 worked out at 26 mg/L.

With B9, the neutralization IC50 stood at 0.284 mg/L.

The target in another assay is Env of HIV-1 strain 250-4 (HIV-1). The assay can be described thus: cell-based or functional assay.
Molecule B1 registered a neutralization IC50 above 15 mg/L.

Take B2: the neutralization IC50 is above 15 mg/L.

With B3, the neutralization IC50 was above 15 mg/L.

In the case of B4, the neutralization IC50 is above 15 mg/L.

With B5, the neutralization IC50 was above 15 mg/L.

As for B6, the neutralization IC50 is above 15 mg/L.

The molecule B7 registered a neutralization IC50 above 15 mg/L.

In turn, B8 showed a neutralization IC50 above 15 mg/L.

As for B9, the neutralization IC50 is above 15 mg/L.

The next assay concerns the target Env of HIV-1 strain 251-18 (HIV-1). The assay can be described thus: cell-based or functional assay.
The molecule B1 yielded a neutralization IC50 above 15 mg/L.

In turn, B2 registered a neutralization IC50 above 15 mg/L.

In turn, B3 gave a neutralization IC50 above 15 mg/L.

Molecule B4 displayed a neutralization IC50 above 15 mg/L.

B5 yielded a neutralization IC50 above 15 mg/L.

On to B6, for which the neutralization IC50 stood at 1.58 mg/L.

For B7, the neutralization IC50 turned out to be 25 mg/L.

As for B8, the neutralization IC50 was above 15 mg/L.

For the molecule B9, the neutralization IC50 stood at 0.116 mg/L.

The target of the next assay is Env of HIV-1 strain 3016.v5.c45 (HIV-1). The assay can be described thus: cell-based or functional assay.
In the case of B1, the neutralization IC50 was above 15 mg/L.

Turning to B2, the neutralization IC50 was above 15 mg/L.

Take B3: the neutralization IC50 was above 15 mg/L.

B4: the neutralization IC50 is 2.99 mg/L.

B5: the neutralization IC50 was determined as 0.057 mg/L.

B6 had a neutralization IC50 of 0.047 mg/L.

Regarding B7, the neutralization IC50 was above 15 mg/L.

On to B8, for which the neutralization IC50 was 13.3 mg/L.

For the molecule B9, the neutralization IC50 was found to be 0.129 mg/L.

In a further assay the target is Env of HIV-1 strain 3365.v2.c20 (HIV-1). Put plainly: cell-based or functional assay.
Molecule B1 yielded a neutralization IC50 above 15 mg/L.

Turning to B2, the neutralization IC50 is above 15 mg/L.

Turning to B3, the neutralization IC50 was above 15 mg/L.

B4 registered a neutralization IC50 above 15 mg/L.

For B5, the neutralization IC50 was above 15 mg/L.

In the case of B6, the neutralization IC50 is above 15 mg/L.

B7: the neutralization IC50 was above 15 mg/L.

Take B8: the neutralization IC50 was above 15 mg/L.

The molecule B9 returned a neutralization IC50 above 15 mg/L.

Another assay concerns the target Env of HIV-1 strain 3415.v1.c1 (HIV-1). Put plainly: cell-based or functional assay.
Take B1: the neutralization IC50 was above 15 mg/L.

B2 gave a neutralization IC50 above 15 mg/L.

Molecule B3 showed a neutralization IC50 above 15 mg/L.

B4 had a neutralization IC50 above 15 mg/L.

In the case of B5, the neutralization IC50 is above 15 mg/L.

Regarding B6, the neutralization IC50 is above 15 mg/L.

For B7, the neutralization IC50 is above 15 mg/L.

B8 gave a neutralization IC50 above 15 mg/L.

B9: the neutralization IC50 was above 15 mg/L.

In another assay the target is Env of HIV-1 strain Du172.17 (HIV-1). Put plainly: cell-based or functional assay.
B1 gave a neutralization IC50 above 15 mg/L.

As for B2, the neutralization IC50 is above 15 mg/L.

In the case of B3, the neutralization IC50 is above 15 mg/L.

Take B4: the neutralization IC50 was above 15 mg/L.

For the molecule B5, the neutralization IC50 was 11.5 mg/L.

B6 showed a neutralization IC50 of 2.95 mg/L.

As for B7, the neutralization IC50 was above 15 mg/L.

Molecule B8 yielded a neutralization IC50 above 15 mg/L.

The molecule B9 came in with a neutralization IC50 above 15 mg/L.

A further assay has as its target Env of HIV-1 strain H086.8 (HIV-1). The assay can be described thus: cell-based or functional assay.
B1: the neutralization IC50 was above 15 mg/L.

Regarding B2, the neutralization IC50 was above 15 mg/L.

The molecule B3 yielded a neutralization IC50 above 15 mg/L.

Molecule B4 returned a neutralization IC50 above 15 mg/L.

For B5, the neutralization IC50 came to 0.209 mg/L.

Turning to B6, the neutralization IC50 is above 15 mg/L.

B7 showed a neutralization IC50 above 15 mg/L.

B8 had a neutralization IC50 above 15 mg/L.

With B9, the neutralization IC50 was found to be 0.464 mg/L.

In another assay the target is Env of HIV-1 strain PVO.4 (HIV-1). Put plainly: cell-based or functional assay.
Molecule B1 yielded a neutralization IC50 above 15 mg/L.

As for B2, the neutralization IC50 is above 15 mg/L.

With B3, the neutralization IC50 is above 15 mg/L.

For the molecule B4, the neutralization IC50 worked out at 2.1 mg/L.

In the case of B5, the neutralization IC50 was determined as 0.028 mg/L.

Molecule B6 displayed a neutralization IC50 of 0.047 mg/L.

As to B7, the neutralization IC50 was above 15 mg/L.

As for B8, the neutralization IC50 was above 15 mg/L.

B9 had a neutralization IC50 of 0.081 mg/L.

A further assay addresses Env of HIV-1 strain R1166.c1 (HIV-1). The assay can be described thus: cell-based or functional assay.
The molecule B1 displayed a neutralization IC50 of 12.6 mg/L.

Molecule B2 registered a neutralization IC50 of 20 mg/L.

With B3, the neutralization IC50 is above 15 mg/L.

Molecule B4 showed a neutralization IC50 of 4.1 mg/L.

The molecule B5 showed a neutralization IC50 of 0.578 mg/L.

As for B6, the neutralization IC50 was 0.708 mg/L.

The molecule B7 gave a neutralization IC50 of 11.7 mg/L.

As for B8, the neutralization IC50 came out at 7.31 mg/L.

In the case of B9, the neutralization IC50 stood at 1.35 mg/L.

A further assay has as its target Env of HIV-1 strain REJO4541.67 (HIV-1). The assay can be described thus: cell-based or functional assay.
The molecule B1 gave a neutralization IC50 of 1.57 mg/L.

B2 registered a neutralization IC50 above 15 mg/L.

For the molecule B3, the neutralization IC50 is above 15 mg/L.

B4 returned a neutralization IC50 above 15 mg/L.

In turn, B5 registered a neutralization IC50 of 0.049 mg/L.

B6: the neutralization IC50 was determined as 0.061 mg/L.

As for B7, the neutralization IC50 stood at 1.23 mg/L.

In the case of B8, the neutralization IC50 is above 15 mg/L.

As to B9, the neutralization IC50 was found to be 2.13 mg/L.

Another assay has as its target Env of HIV-1 strain X1254_c3 (HIV-1). Put plainly: cell-based or functional assay.
B1 registered a neutralization IC50 of 4.67 mg/L.

B2 registered a neutralization IC50 of 5.22 mg/L.

B3: the neutralization IC50 was 16.2 mg/L.

The molecule B4 had a neutralization IC50 of 4.2 mg/L.

On to B5, for which the neutralization IC50 was determined as 0.616 mg/L.

Molecule B6 gave a neutralization IC50 of 0.545 mg/L.

Consider B7, for which the neutralization IC50 came out at 4.07 mg/L.

As for B8, the neutralization IC50 amounted to 1.58 mg/L.

B9 returned a neutralization IC50 of 1.57 mg/L.

For a further assay, the target named is Env of HIV-1 strain YU2.DG (HIV-1). The assay can be described thus: cell-based or functional assay.
Molecule B1 had a neutralization IC50 of 6.91 mg/L.

As for B2, the neutralization IC50 was above 15 mg/L.

As for B3, the neutralization IC50 is above 15 mg/L.

As to B4, the neutralization IC50 is 2.36 mg/L.

The molecule B5 had a neutralization IC50 of 0.07 mg/L.

In the case of B6, the neutralization IC50 worked out at 0.117 mg/L.

In turn, B7 displayed a neutralization IC50 of 7.71 mg/L.

For B8, the neutralization IC50 worked out at 8.23 mg/L.

As for B9, the neutralization IC50 amounted to 0.265 mg/L.

Another assay deals with Env of HIV-1 strain ZM109F.PB4 (HIV-1). The assay can be described thus: cell-based or functional assay.
Turning to B1, the neutralization IC50 was above 15 mg/L.

B2 came in with a neutralization IC50 above 15 mg/L.

The molecule B3 showed a neutralization IC50 above 15 mg/L.

With B4, the neutralization IC50 was above 15 mg/L.

The molecule B5 came in with a neutralization IC50 above 15 mg/L.

The molecule B6 registered a neutralization IC50 above 15 mg/L.

Regarding B7, the neutralization IC50 was above 15 mg/L.

Regarding B8, the neutralization IC50 was above 15 mg/L.

Consider B9, for which the neutralization IC50 was above 15 mg/L.

In the next assay the target is Env of HIV-1 strain ZM53M.PB12 (HIV-1). Put plainly: cell-based or functional assay.
B1 came in with a neutralization IC50 above 15 mg/L.

Molecule B2 had a neutralization IC50 above 15 mg/L.

The molecule B3 showed a neutralization IC50 above 15 mg/L.

B4 registered a neutralization IC50 above 15 mg/L.

As to B5, the neutralization IC50 is above 15 mg/L.

B6 yielded a neutralization IC50 above 15 mg/L.

B7 gave a neutralization IC50 above 15 mg/L.

B8 yielded a neutralization IC50 above 15 mg/L.

For B9, the neutralization IC50 was above 15 mg/L.

The next assay has as its target Env of MuLV. Put plainly: cell-based or functional assay.
As for B1, the neutralization IC50 is above 30 mg/L.

B2 displayed a neutralization IC50 above 30 mg/L.

Consider B3, for which the neutralization IC50 was above 30 mg/L.

In turn, B4 gave a neutralization IC50 above 15 mg/L.

Consider B5, for which the neutralization IC50 was above 30 mg/L.

In the case of B6, the neutralization IC50 was above 30 mg/L.

In turn, B7 had a neutralization IC50 above 15 mg/L.

Turning to B8, the neutralization IC50 was above 30 mg/L.

On to B9, for which the neutralization IC50 is above 15 mg/L.
